Experimental data as given in paper PMC10108556 (Antibody Therapeutics, 2023).

What was measured:
[1] = biological target: T1, SARS-CoV-2 RBD domain (residues 319–541) with C-terminal twin-strep-tag II (SARS-CoV-2 Wuhan-Hu-1 (MN908947), UniProt P0DTC2); assay: cryo-EM structure
[2] = biological target: RBD-his (SARS-CoV-2, UniProt P0DTC2); assay: AlphaScreen or HTRF
[3] = biological target: T2, SARS-CoV-2 RBD domain (residues 319-541) (SARS-CoV-2 Wuhan-Hu-1 (MN908947), UniProt P0DTC2); assay: cryo-EM structure
[4] = biological target: T1, SARS-CoV-2 RBD domain (residues …); assay: crystal structure
[5] = biological target: T2, SARS-CoV-2 RBD domain (residues 319-541); assay: crystal structure

B1: A5–10 Fab (Fab, V domains shown)
VH: EVQLLESGGGLVQPGGSLRLSCAASGFTFSSYAMSWVRQAPGKGLEWVSAIVGSGGSTYYADSVKGRFIISRDNSKNTLYLQMNSLRAEDTAVYYCAKSLIYGHYDILTGAYYFDYWGQGTLVTVSS
VL: AQMTQSPSSVSASVGDRVTIPCRASQGIGNWLAWYQQKPGKAPKLLIYAASSLQSGVPSRFSGSGSGTDFTLTISSLQPEDFATYYCQQANSFPPFGQGTRLEIK
binding result [1]: binds

B2: nAb A5–10 (antibody, V domains shown)
VH: EVQLLESGGGLVQPGGSLRLSCAASGFTFSSYAMSWVRQAPGKGLEWVSAIVGSGGSTYYADSVKGRFIISRDNSKNTLYLQMNSLRAEDTAVYYCAKSLIYGHYDILTGAYYFDYWGQGTLVTVSS
VL: AQMTQSPSSVSASVGDRVTIPCRASQGIGNWLAWYQQKPGKAPKLLIYAASSLQSGVPSRFSGSGSGTDFTLTISSLQPEDFATYYCQQANSFPPFGQGTRLEIK
binding result [2]: binds

B3: A5-10 Fab (Fab, V domains shown)
VH: EVQLLESGGGLVQPGGSLRLSCAASGFTFSSYAMSWVRQAPGKGLEWVSAIVGSGGSTYYADSVKGRFIISRDNSKNTLYLQMNSLRAEDTAVYYCAKSLIYGHYDILTGAYYFDYWGQGTLVTVSS
VL: AQMTQSPSSVSASVGDRVTIPCRASQGIGNWLAWYQQKPGKAPKLLIYAASSLQSGVPSRFSGSGSGTDFTLTISSLQPEDFATYYCQQANSFPPFGQGTRLEIK
binding result [3]: binds

B4: nAb A34–2 (antibody, V domains shown)
VH: EVQLVESGGGLVQPGRSLRLSCAASGFTFDESAMHWVRQAPGEGLEWVSGISWNSGRIAYADSVRGRFTISRDNAKNSLYLQMNSLRAEDTALYFCALTTSGWFSFDYWGQGTLVTVSS
VL: SYVLTQPPSVSVAPGKTARITCGGNNIGSKSVHWYQQKPGQAPVPVIYYDSDRPSGIPERFSGSNSGNTATLTISRVEVGDEADYYCQVWDSSSDRAVFGGGTTLTVL
binding result [2]: binds

B5: A34–2 Fab (Fab, V domains shown)
VH: EVQLVESGGGLVQPGRSLRLSCAASGFTFDESAMHWVRQAPGEGLEWVSGISWNSGRIAYADSVRGRFTISRDNAKNSLYLQMNSLRAEDTALYFCALTTSGWFSFDYWGQGTLVTVSS
VL: SYVLTQPPSVSVAPGKTARITCGGNNIGSKSVHWYQQKPGQAPVPVIYYDSDRPSGIPERFSGSNSGNTATLTISRVEVGDEADYYCQVWDSSSDRAVFGGGTTLTVL
binding result [1]: binds

B6: A34-2 Fab (Fab, V domains shown)
VH: EVQLVESGGGLVQPGRSLRLSCAASGFTFDESAMHWVRQAPGEGLEWVSGISWNSGRIAYADSVRGRFTISRDNAKNSLYLQMNSLRAEDTALYFCALTTSGWFSFDYWGQGTLVTVSS
VL: SYVLTQPPSVSVAPGKTARITCGGNNIGSKSVHWYQQKPGQAPVPVIYYDSDRPSGIPERFSGSNSGNTATLTISRVEVGDEADYYCQVWDSSSDRAVFGGGTTLTVL
binding result [3]: binds

B7: A8–1 Fab (Fab, V domains shown)
VH: EVQLVESGGGLIQPGGSLRLSCAASGLTVSSNYMTWVRQAPGKGLEWVSVIYSGGSTFYAESVKGRFTISRDNSKNTLYLQMNSLRAEDTAVYYCARDLVVYGMDVWGQGTTVIVSS
VL: IQLTQSPSFLSASVGDRVTITCRASQGISSDLAWYQQKPGKAPKLLIYAASTLQSGVPSRFSGSGSGTEFTLTISSLQPEDFATYYCQQLNSHPLAFGPGTKVDIK
binding result [4]: binds

B8: A8-1 Fab (Fab, V domains shown)
VH: EVQLVESGGGLIQPGGSLRLSCAASGLTVSSNYMTWVRQAPGKGLEWVSVIYSGGSTFYAESVKGRFTISRDNSKNTLYLQMNSLRAEDTAVYYCARDLVVYGMDVWGQGTTVIVSS
VL: IQLTQSPSFLSASVGDRVTITCRASQGISSDLAWYQQKPGKAPKLLIYAASTLQSGVPSRFSGSGSGTEFTLTISSLQPEDFATYYCQQLNSHPLAFGPGTKVDIK
binding result [5]: binds

B9: nAb A8–1 (antibody, V domains shown)
VH: EVQLVESGGGLIQPGGSLRLSCAASGLTVSSNYMTWVRQAPGKGLEWVSVIYSGGSTFYAESVKGRFTISRDNSKNTLYLQMNSLRAEDTAVYYCARDLVVYGMDVWGQGTTVIVSS
VL: IQLTQSPSFLSASVGDRVTITCRASQGISSDLAWYQQKPGKAPKLLIYAASTLQSGVPSRFSGSGSGTEFTLTISSLQPEDFATYYCQQLNSHPLAFGPGTKVDIK
binding result [2]: binds
